The text below walks through data of paper PMC10960814.

The target in assay [1] is full-length human IR-A, Myc-tagged (pCS2-IR-A-Myc) (human) (UniProt P06213). The assay can be described thus: competition-binding assay (fluorescent insulin on bead-bound receptor); IR-A-Myc or IR-B-Myc held on anti-c-Myc magnetic beads; 1 nM Alexa Fluor labeled human insulin and the indicated amount of homemade IGF2, 4 °C, 14 h; 20 mM Hepes pH 7.4, 200 mM NaCl, 0.03% DDM, 0.003% CHS, 100 nM BSA; fluorescence of the eluate.

Assay [2] has as its target full-length human IR-B, Myc-tagged (pCS2-IR-B-Myc) (human) (UniProt P06213). The assay is described as above.
Assay [3] deals with full-length human insulin receptor, B isoform (hIR-B), with a kinase-dead mutation, construct for structural studies (human). Put plainly: cryo-EM structure; purified hIR-A or hIR-B dimer fraction (20 mM HEPES-Na pH 7.5, 400 mM NaCl, 0.03% DDM) with refolded IGF2 added at a 2:8 (m/m) ratio, 2 h; saturated IGF2.

On to IGF2 R30A mutant (ligand), for which the fold of binding affinity against IGF2 WT in assay [1] and in assay [2] was 3 fold throughout.
With “insulin-like growth factor 2 (IGF2), wild type, homemade (from UniProt P01344 25-91) (ligand)”, in assay [3], the stoichiometry N (IGF2 per IR dimer (class 1, symmetric)) turned out to be 4 and the stoichiometry N (IGF2 per IR dimer (class 2, asymmetric)) was determined as 3. The stoichiometry N in assay [3] (scale: IGF2 per IR dimer) is 2.
